The results in this text go back to the supplement of paper PMC9170038.

In this data set the test system is MS2 coat protein. Description: apparent KD of MS2 coat protein; designed switch direction (-1 OFF switch, 1 ON switch): -1; higher = weaker reporter binding. In short, it runs like this:
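The apparent KD reported per design is the median over clusters of curve fits to normalised cluster fluorescence. The RNA switches were transcribed on Illumina chips by stalled E. coli RNA polymerase. SNAP-549-labelled MS2 coat protein was titrated from 0.7 or 1.5 nM, doubling up to 3 µM, in Tris-HCl pH 7.5 buffer containing KCl, MgCl2, BSA, DTT, tRNA and Tween-20, with no input, 200 uM small-molecule ligand, or an oligonucleotide input.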

[1] abbreviates: Eterna round: R95, input ligand: FMN 200 uM.
The mark [2] stands for this setting: Eterna round: R95, input ligand: microRNA oligo, concentration not stated.
[3] abbreviates: Eterna round: R95, input ligand: none.
The mark [4] stands for this setting: input ligand: microRNA oligo, concentration not stated.

For “AGUACUAACACGAAAGUGUUAGUACAAUAAGCUUGUGAAACAUGAGGAUCACCCAUGUCCUCAUACGCUCGUCUUAU [salish99_TOv2_r3_055] (puzzle: Sensor v3, turn-off variant 2)”, the “apparent KD of MS2 coat protein” value reads like this: under setting [1], 0.5 µM; under setting [2], 0.789 µM; under setting [3], 0.655 µM.
Regarding “GGUUGGCGAGGAUAUACAUGAGGAUCACCCAUGUGGUCCUAAAAUAAAAUAGACCUUUGUAGAAGGCGCGGGUC [salish99_ex3_r4_040] (Eterna round: R97, puzzle: Exclusion 3)”, the “apparent KD of MS2 coat protein” value reads like this: (input ligand: FMN 200 uM) 0.139 µM; (input ligand: none) 0.215 µM.
As to “AGCUGUGGCCGAGGAUAUCCAACCUUAAAUACCGACGUAUAGUCGGACAUGAGGAUCACCCAUGUGGAGAAGGCGGUCUCAGCA [Eli eng2 - 039] (Eterna round: R96, puzzle: Exclusion NG 2)”, the “apparent KD of MS2 coat protein” value is, setting by setting: (input ligand: FMN 200 uM) 0.0625 µM; under setting [4], 0.028 µM; (input ligand: none) 0.0471 µM.
For “UAUAUAUAGUAAGGAUAUGUAUUCAUUUUAUAAACAGAAGGUACUGACAUGAGGAUCACCCAUGUUUUAGUGUGGGCAUGUAGA [JMF's solution 10] (Eterna round: R96, puzzle: Exclusion NG 1)”, the “apparent KD of MS2 coat protein” value under setting [4] turned out to be 0.0641 µM.
For “UGAUCUUGAGUCAGGAUAUGCUGGUAUUUUUACCAGCAGAAGGGACAUGAGGAUCACCCAUGUUCUCACUUUUU [Magic-13] (puzzle: Brourd's mod of Exclusion 4)”, the “apparent KD of MS2 coat protein” value under setting [2] is 0.0105 µM.
As to “CUGAGCAGACGAAGAUCCAACAUGAGGAUCACCCAUGUCUCAAAAGCUUUUUGCUCGUCUUAUCCUUCUCUGUUCUC [Reisedzaqu] (puzzle: Sensor v3, turn-off variant 1)”, the “apparent KD of MS2 coat protein” value runs as follows: under setting [1], 0.016 µM; under setting [2], 0.176 µM; under setting [3], 0.013 µM.
For the sequence “AGACAGUGAGGAUAUGCAGUCGGUGUCACCUGAUGAGAAGAACAUGAGGAUCACCCAUGUAGAAGGCACAGGAA [Tearrice] (puzzle: Exclusion 2)”, under setting [2], the “apparent KD of MS2 coat protein” value was 0.0406 µM.
“CAUCCGGCAGGAUAUACAUGAGGAUCACCCAUGUCAGAAAGCAAAUUGUGCGACUCAGGUAGAAGGGUUGGACU [Ederusat] (puzzle: Exclusion 3)”: the “apparent KD of MS2 coat protein” value under setting [2] is 0.0211 µM.
With “UCCAGGCGAGGAUAUACAAAGAUUUUUUCGUUUAGUCUCGAACAUGAGGAUCACCCAUGUAGAAGGUGCUUCAC [JR_Ex2_Sub011] (Eterna round: R97, puzzle: Exclusion 2)”, the “apparent KD of MS2 coat protein” value stood at 0.0466 µM (input ligand: FMN 200 uM) and 0.0483 µM (input ligand: none).
Consider “GUCUUAAGUUAAACCGAUUACAUGAGGAUCACCCAUGUGAACAUGACAGUCCGCAUGAGGAGUUUCUUGCUCGUCAU [Eternabot (L1) Solution 28] (Eterna round: R97, puzzle: Sensor, turn-off variant 1)”, for which the “apparent KD of MS2 coat protein” value by setting is: (input ligand: FMN 200 uM) 0.0496 µM; (input ligand: none) 0.0468 µM.
The matching figures for “ACCUCACUUGAGGAUCACCCAAGUCAGGAUAUACUCGUUUGCCGAAAGACGCGGCAUUGUAGAAGGGACGGGUU [Raortiza] (Eterna round: R97, puzzle: Exclusion 1)”: 0.0266 µM and 0.0155 µM.
In the same order, the values of “CUCAGGGUGCAGGAUAUCAUGGGAUAUCCCACCUGAGAAGGGCGAACAUGAGGAUCACCCAUGUGAGUGGGAGA [Eternabot (L2) Solution 85] (Eterna round: R97, puzzle: Exclusion 6)” are 0.488 µM and 0.441 µM.
With “UCUGGUCGAGGAUAUACAUGAGGAUCACCCAUGUUGAUCAACUGCCGAUAGGCAGAAUGUAGAAGGCGACCAGA [E3/7-A3] (Eterna round: R97, puzzle: Exclusion 3)”, the “apparent KD of MS2 coat protein” value was 0.176 µM (input ligand: FMN 200 uM) and 0.865 µM (input ligand: none).
For the sequence “AUUAUGUUAGGAUAUGCUUAUGGUGGAUAGUCCAAUGUGGUGCAGAAGGGACAUGAGGAUCACCCAUGUGCUGA [EX4 #30] (Eterna round: R97, puzzle: Exclusion 4)”, the “apparent KD of MS2 coat protein” value (input ligand: FMN 200 uM) came to 0.0923 µM and the “apparent KD of MS2 coat protein” value (input ligand: none) worked out at 0.0575 µM.
With “ACACAGCAAGGAUAUACAUGAGGAUCACCCAUGUGGUGGCCGUUACGGUAGGACUAGUGUAGAAGGUGCAUUGG [EX3 #32] (Eterna round: R97, puzzle: Exclusion 3)”, the “apparent KD of MS2 coat protein” value (input ligand: FMN 200 uM) was determined as 0.637 µM and the “apparent KD of MS2 coat protein” value (input ligand: none) worked out at 0.469 µM.
Consider “CAUGGAUGUGAGCCGCAUUACAUGAGGAUCACCCAUGUCAACAAGCUUUUUGCUUGUCUUACGCGGCGGCACCAGAA [Getelexe] (puzzle: Sensor v3, turn-off variant 1)”, for which the “apparent KD of MS2 coat protein” value was 0.0143 µM under setting [1], 0.00803 µM under setting [2] and 0.0108 µM under setting [3].
On to “AGCCUACAUGAGGAUCACCCAUGUCAGGAUAUCUCGCGACGUGUCGGGAACACGUUGCAGAGAAGGGACUCGGG [Labezadi] (puzzle: Exclusion 1)”, for which, under setting [2], the “apparent KD of MS2 coat protein” value was 0.0518 µM.
In the case of “AAACGGCAGGGAGGAUAUGCUUGCCUGGGUCGUCUUCAAACAUGAGGAUCACCCAUGUAGUCGACGCAGAAGGCCCUCAAAGCC [JL ViennaUCT Ontiis mod 4] (Eterna round: R96, puzzle: Exclusion NG 2)”, the “apparent KD of MS2 coat protein” value worked out at 0.0429 µM (input ligand: FMN 200 uM), 0.00885 µM under setting [4] and 0.0167 µM (input ligand: none).
On to “CAUUGUUAUCGAGGAUAUCGUAUUGAGAUACUACGAGAAGGCGGACUAAACAUGAGGAUCACCCAUGUGAGACGGAUGCUUGGG [Ex NG1 #33] (Eterna round: R96, puzzle: Exclusion NG 1)”, for which the “apparent KD of MS2 coat protein” value reads like this: (input ligand: FMN 200 uM) 0.059 µM; under setting [4], 0.021 µM; (input ligand: none) 0.0343 µM.
In the same order, the values of “UUAAAUCAUGUAGGAUAUGCGUGGCGAAGCUAUGCAGAAGGACAUGAGGAUCACCCAUGUUCUAGCGUCUGCGAACAGAUGCAA [Mat - Exclusion NG 1 - Mod of JL - D1] (Eterna round: R96, puzzle: Exclusion NG 1)” are 0.12 µM, 0.0122 µM and 0.0169 µM.
On to “AUACGUCAAGUCAGGAUAUAUACCGCGACUACGGCGUAGAAGGGACAUGAGGAUCACCCAUGUAAAAGGGCAAA [Ceerrilaza] (puzzle: Brourd's mod of Exclusion 4)”, for which the “apparent KD of MS2 coat protein” value under setting [1] stood at 0.0377 µM, the “apparent KD of MS2 coat protein” value under setting [2] was 0.0365 µM and the “apparent KD of MS2 coat protein” value under setting [3] was found to be 0.0345 µM.
As to “AGUACUAACACGAAAGUGUUAGUACAAUAAGCUUGUGAAACAUGAGGAUCACCCAUGUCCUCAUCAGCUCGUCUUAU [salish99_TOv2_r3_052] (puzzle: Sensor v3, turn-off variant 2)”, the “apparent KD of MS2 coat protein” value is, setting by setting: under setting [1], 0.124 µM; under setting [2], 0.409 µM; under setting [3], 0.191 µM.
The matching figures for “AAGUACCGUCACGAUAGUGAUGGUACAACAAGCAGUGAAACAUGAGGAUCACCCAUGUCCUCAAUUGCUCGUCUUAU [Sensor 3 - 74] (puzzle: Sensor v3, turn-off variant 2)”: 0.0399 µM, 0.195 µM and 0.0375 µM.
Turning to “CCAUGUAGAGGAUAUCUUAAGCUAGACAUGAGGAUCACCCAUGUGACUAUUCCUAUGAGCGGAGAAGGCUGAACCA [Eternabot (L2) Solution 64] (Eterna round: R97, puzzle: Exclusion 5)”, the “apparent KD of MS2 coat protein” value worked out at 0.0297 µM (input ligand: FMN 200 uM) and 0.0296 µM (input ligand: none).
Take “GAUCCACAUGAGGAUCACCCAUGUGAGGAUAUGAUACUAUGUACUUCGGUACAUAGUAUCAGAAGGCACAGGUC [Ex1-3: 56] (puzzle: Exclusion 1)”: the “apparent KD of MS2 coat protein” value under setting [2] is 0.0506 µM.
In the case of “ACAUGAGGAUCACCCAUGUUCGGCUGGUCCGUUUCGGCUGUCGAGGAUAUAGUUCGGUGUCCGCGCUAGAAGGCGGGAGCUGGC [Aenatbe mod 64] (Eterna round: R96, puzzle: Exclusion NG 3)”, the “apparent KD of MS2 coat protein” value by setting is: (input ligand: FMN 200 uM) 0.167 µM; under setting [4], 0.039 µM; (input ligand: none) 0.0685 µM.
As for “AAACCUGGAGUUAGGAUAUGAAGUAUCACUGCGCUUCAGAAGGGACUUGAGGAUCACCCAAGUAAAAGUUAAAA [Teredi] (Eterna round: R97, puzzle: Brourd's mod of Exclusion 4)”, the “apparent KD of MS2 coat protein” value (input ligand: FMN 200 uM) turned out to be 0.0208 µM and the “apparent KD of MS2 coat protein” value (input ligand: none) amounted to 0.0185 µM.
As to “CCACUGUCAGGAUAUCGUGCAUAACGUUAACAAUUUAUGUGCGAGAAGGGACAUGAGGAUCACCCAUGUAAACG [Omei Ex4 A28PK4] (Eterna round: R97, puzzle: Exclusion 4)”, the “apparent KD of MS2 coat protein” value by setting is: (input ligand: FMN 200 uM) 0.233 µM; (input ligand: none) 0.166 µM.
Consider “CUCCUCAUGGCGCCUAAACACAUGAGGAUCACCCAUGUAUAGGCUUUUUGCCGUCUUAUAAUAAAACCGAGGAUGCG [Rianza] (puzzle: Sensor v3, turn-off variant 1)”, for which the “apparent KD of MS2 coat protein” value runs as follows: under setting [1], 0.0287 µM; under setting [2], 0.276 µM; under setting [3], 0.0219 µM.
The matching figures for “ACGUGAUAUCUGUCGGUGGACAUGAGGAUCACCCAUGUAAGCUUUUUGCUCAUCUUAUAACCCGGUGACAGACCUUC [Zaisbela] (puzzle: Sensor v3, turn-off variant 1)”: 0.0268 µM, 0.413 µM and 0.0295 µM.
In the case of “AUUUAAUUUAGCGAGAUCACAUGAGGAUCACCCAUGUAUAUAUAGGAUAUCAGCUCGAAUAGAGCUGAGAAGGAUAUAUACCGC [ExNG3/7-A4] (Eterna round: R96, puzzle: Exclusion NG 3)”, under setting [4], the “apparent KD of MS2 coat protein” value came to 0.0767 µM.
